Measurements reported in paper PMC9748336.

Molecular target: HA-tagged PP2A catalytic Cα subunit p.Cys196Arg variant (human) (UniProt P67775)
Assay: co-IP; HA pull-down: lysates of HEK293T cells transfected with HA-Cα incubated 1 h at 4°C with anti-HA-agarose beads in NENT100 buffer with 1 mg/ml BSA; washes with 300 and 150 mM NaCl; endogenous A subunit detected by anti-A immunoblot, quantified against the anti-HA signal, WT set at 100%

percent decrease of binding against Cα WT: 40%
Substance: endogenous PP2A A subunit (from UniProt P30153 1-589) (natural protein)
